Data: patent publication US20250340623A1 (AC IMMUNE, published 2025)
Where no end group is shown, it is not given here. The star is where a group is joined. Biotin = O=C1N[C@H]2[C@H](CS[C@H]2CCCCC(=O)*)N1; Ahx = NCCCCCC(=O)O

T1: 91-105aa
T1 peptide: {Biotin-Ahx}-ATGFVKKDQLGKNEE

T2: 118-132aa
T2 peptide: {Biotin-Ahx}-VDPDNEAYEMPSEEG

T3: 127-140aa
T3 peptide: {Biotin-Ahx}-MPSEEGYQDYEPEA

T4: 1-14aa
T4 construct: also called alpha-synuclein peptide 1-14
T4 peptide: MDVFMKGLSKAKEG-biotin

T5: 1-15aa
T5 construct: also called alpha-synuclein peptide 1-15
T5 peptide: {Biotin-Ahx}-MDVFMKGLSKAKEGV

T6: 10-24aa
T6 construct: also called alpha-synuclein peptide 10-24
T6 peptide: {Biotin-Ahx}-KAKEGVVAAAEKTKQ

T7: 46-60aa
T7 construct: also called alpha-synuclein peptide 46-60
T7 peptide: {Biotin-Ahx}-EGVVHGVATVAEKTK

T8: 82-96aa
T8 construct: also called alpha-synuclein peptide 82-96
T8 peptide: {Biotin-Ahx}-VEGAGSIAAATGFVK

T9: 64-78aa
T9 construct: also called alpha-synuclein peptide 64-78
T9 peptide: {Biotin-Ahx}-TNVGGAVVTGVTAVA


Tests used:
91-105aa = biological target: T1, 91-105aa; test: indirect ELISA on biotinylated 15-mer peptide
Experimental: (§1) Serum-free supernatants were harvested from stable hybridomas. The supernatants containing antibodies of interest were then screened by an indirect ELISA assay to determine epitopes. Epitopes were first determined using a library of 15-mer peptides covering the entire sequence of human alpha-synuclein protein, spanning amino acids (aa) 1-140 with 9aa offset and […] overlap. […] Briefly, streptavidin-coated ELISA plates were blocked overnight at 4° C. […] Plates were washed with PBS/0.05% Tween®20 and then incubated with the hybridoma supernatants at 1/100 dilution for 1 hour at 25° C.

118-132aa = biological target: T2, 118-132aa; test: indirect ELISA on biotinylated 15-mer peptide
Experimental: as §1

127-140aa = biological target: T3, 127-140aa; test: indirect ELISA on biotinylated 15-mer peptide
Experimental: as §1

1-14aa = biological target: T4, 1-14aa; test: indirect ELISA on biotinylated 15-mer peptide
Experimental: as §1

1-15aa = biological target: T5, 1-15aa; test: indirect ELISA on biotinylated 15-mer peptide
Experimental: as §1

10-24aa = biological target: T6, 10-24aa; test: indirect ELISA on biotinylated 15-mer peptide
Experimental: as §1

46-60aa = biological target: T7, 46-60aa; test: indirect ELISA on biotinylated 15-mer peptide
Experimental: as §1

82-96aa [1] = biological target: T8, 82-96aa; test: indirect ELISA on biotinylated 15-mer peptide, supernatant 1/100
Experimental: as §1

64-78aa [2] = biological target: T9, 64-78aa; test: indirect ELISA on biotinylated 15-mer peptide
Experimental: as §1

82-96aa [3] = biological target: T8, 82-96aa; test: indirect ELISA on biotinylated 15-mer peptide
Experimental: as §1

64-78aa [4] = biological target: T9, 64-78aa; test: indirect ELISA on biotinylated 15-mer peptide, supernatant 1/100
Experimental: as §1

alpha-synuclein seeds = alpha-synuclein seeds (UniProt P37840 1-140); test: cell-based or functional assay

Row | Binder | binding result (91-105aa) | binding result (118-132aa) | binding result (127-140aa) | binding result (1-14aa) | binding result (1-15aa) | binding result (10-24aa) | binding result (46-60aa) | binding result (82-96aa [1]) | binding result (64-78aa [2]) | binding result (82-96aa [3]) | binding result (64-78aa [4]) | aggregation half-time (τ1/2) of seeded alpha-synuclein aggregation, ThT; no antibody 26.9 hours (alpha-synuclein seeds)
1 | ACI-7079-2511B3-Ab3 (antibody, V domains shown, mouse hybridoma mAb; VH/VL only; also called 2511B3B12) VH: DVQLQESGPGLVKPSQSLSLTCSVTGFSITSYYYWNWIRQFPGNKLEWMAYISYDGSNNYNPSLKNRISITRDTSKNQFFLKLNSVTTEDTATYYCTRGDWDWGQGTLVTVSA VL: not shown | no binding (tested: supernatant 1/100) | no binding (tested: supernatant 1/100) | no binding (tested: supernatant 1/100) | no binding (tested: supernatant 1/100) | no binding (tested: supernatant 1/100) | no binding (tested: supernatant 1/100) | no binding (tested: supernatant 1/100) | binds | – | – | – | –
2 | ACI-7067-1116F2-Ab1 (antibody, V domains shown, mouse hybridoma mAb; VH/VL only; also called 1116F2A2) VH: DVQLQESGPGFVKPSQSLSLTCSVTGYSITRGFYWNWIRQFPGNKLEWMGYISDDGNSNYNPSLKNRISITRDTFKNQVFLRLNSVTTEDTATYYCTRGDLLWGQGTTLTVSS VL: not shown | – | no binding (tested: supernatant 1/100) | no binding (tested: supernatant 1/100) | – | – | – | no binding (tested: supernatant 1/100) | binds | no binding (tested: supernatant 1/100) | – | – | –
3 | ACI-7067-1102G3-Ab1 (antibody, V domains shown, mouse hybridoma mAb; VH/VL only; also called 1102G3F2) VH: EVKLEESGGGLVQPGGSMKLSCAASGFTFSDAWMNWVRQSPEKGLEWVAEIRNKAHNHATYYAESVKGRFTISGDDSKSSVYLQMNNLRAEDTGIYYCTIYSYWGQGTLVTVSA VL: SIVMTQTPKFLLVSAGDRVTITCKASQSVTKDVAWYQQKPGQSPKLLIYSTSNRYSGVPDRFTGSGYGTDFTFTINTVQTEDLAVYFCQQDYRIPYTFGGGTKLEIK | – | no binding (tested: supernatant 1/100) | no binding (tested: supernatant 1/100) | – | – | – | no binding (tested: supernatant 1/100) | – | – | no binding (tested: supernatant 1/100) | binds | –
4 | ACI-7067-1112H8-Ab2 (antibody, V domains shown, mouse hybridoma mAb; VH/VL only; also called 1112H8C12) VH: EVKLEESGGGLVQPGGSMKLSCAASGFTFTDAWMNWVRQSPEKGLEWIAEIRNKAHNYATYYAESVKGRFDISGDDSKSSVYLQMNNLRVEDTGIYYCTIYSYWGPGTLVTVSA VL: SIVMTQTPKFLLMSPGDRVTMTCTASQSVSNYVAWYQQKPGQSPKLLIYSASNRFTGVPDRFTGSGYGTDFTFTINTVQTEDMAVYFCQQDYTSPYTFGGGTKLEIK | – | no binding (tested: supernatant 1/100) | no binding (tested: supernatant 1/100) | – | – | – | no binding (tested: supernatant 1/100) | – | – | no binding (tested: supernatant 1/100) | binds | –
5 | ACI-7067-1108H1-Ab1 (antibody, V domains shown, mouse hybridoma mAb; VH/VL only; also called 1108H1E1) VH: EVKLVESGGGLVQPGGSMKLSCTASGFTFSDAWMNWVRQSPEKGLEWVAEIRNKAHNHATNYAESVKGRFTISGDDSKSSVYLQMNNLRAEDTGIYYCTIYSFWGQGTLVTVSA VL: SIVMTQTPKFLLVSAGDRVTITCKASQSVTNYVAWYHQKPGQSPKLLIYSASNRYSGVPDRFTGSGYGTDFTFTINTVQTEDLAVYFCQQDYRIPYTFGGGTKLEIK | – | no binding (tested: supernatant 1/100) | no binding (tested: supernatant 1/100) | – | – | – | no binding (tested: supernatant 1/100) | – | – | no binding (tested: supernatant 1/100) | binds | 28 h
